Source: US20050282739A1 (PALATIN TECHNOLOGIES, published 2005)
Where two headings read alike, the source gives them in different places. Square brackets hold non-standard residues; d marks the D form. Ends that are not written are not given here. Nle = CCCC[C@H](N)C(=O)O

What was measured:
[1] = molecular target: T1, melanocortin-1 receptor (MC1-R) of B-16 mouse melanoma cells (mouse, UniProt Q01727 1-315); assay: 125I-NDP-α-MSH competition, B-16 membranes
T1 construct: whole, on cells; membranes prepared from the cells were used; also called Melanocortin Receptor 1
Description: (§1) The competitive inhibition binding assay was conducted using membranes prepared from hMC3-R, hMC4-R, hMC5-R, and B-16 mouse melanoma cells (containing MC1-R) using 0.4 nM ¹²⁵I-NDP-alpha-MSH (New England Nuclear, Boston, Mass., USA) in 50 mM HEPES buffer containing 1 mM MgCl₂, 2 mM CaCl₂, and 5 mM KCl, at pH 7.2. […] Incubation was for 90 minutes at room temperature, after which the assay mixture was filtered and the membranes washed three times with ice cold buffer. The filter was dried and counted in a gamma counter for remaining radioactivity bound to the membranes. 100% specific binding was defined as the difference in radioactivity (cpm) bound to cell membranes in the absence and presence of 1 μM α-MSH. […] Each assay was conducted in triplicate and the actual mean valves are described.

[2] = molecular target: T2, human melanocortin-3 receptor (hMC3-R) (human, UniProt P41968 1-323); assay: 125I-NDP-α-MSH competition, hMC3-R membranes
T2 construct: whole, on cells; membranes prepared from hMC3-R cells were used; also called Melanocortin Receptor 3
Description: as §1

[3] = molecular target: T3, human melanocortin-5 receptor (hMC5-R) (human, UniProt P33032 1-325); assay: 125I-NDP-α-MSH competition, hMC5-R membranes
T3 construct: whole, on cells; membranes prepared from hMC5-R cells were used; also called Melanocortin Receptor 5
Description: as §1

[4] = molecular target: T1, melanocortin-1 receptor (MC1-R) of B-16 …; assay: 125I-NDP-α-MSH competition, B-16 membranes; remark: listed apart in the source
Description: as §1
(§2) The first unnumbered peptide in Table 3 is the parent polypeptide, which is a Nle³, D-Phe⁶ substituted γ-MSH analog specific for melanocortin receptors. The methods and assays set forth in Example 1 were followed.

[5] = molecular target: T2, human melanocortin-3 receptor (hMC3-R); assay: 125I-NDP-α-MSH competition, hMC3-R membranes; remark: listed apart in the source
Description: as §1, §2

[6] = molecular target: T4, human melanocortin-4 receptor (hMC4-R) (human, UniProt P32245 1-332); assay: 125I-NDP-α-MSH competition, hMC4-R membranes
T4 construct: whole, on cells; membranes prepared from hMC4-R cells were used; also called Melanocortin Receptor 4
Description: as §1, §2

[7] = molecular target: T3, human melanocortin-5 receptor (hMC5-R); assay: 125I-NDP-α-MSH competition, hMC5-R membranes; remark: listed apart in the source
Description: as §1, §2

[8] = molecular target: T4, human melanocortin-4 receptor (hMC4-R); assay: 125I-NDP-α-MSH competition, hMC4-R membranes; remark: listed apart in the source
Description: as §1

[9] = molecular target: T1, melanocortin-1 receptor (MC1-R) of B-16 …; assay: 125I-NDP-α-MSH competition, B-16 membranes; remark: listed apart in the source
Description: as §1
(§3) The methods and assays set forth in Example 1 were followed.

[10] = molecular target: T2, human melanocortin-3 receptor (hMC3-R); assay: 125I-NDP-α-MSH competition, hMC3-R membranes; remark: listed apart in the source
Description: as §1, §3

[11] = molecular target: T4, human melanocortin-4 receptor (hMC4-R); assay: 125I-NDP-α-MSH competition, hMC4-R membranes; remark: listed apart in the source
Description: as §1, §3

[12] = molecular target: T3, human melanocortin-5 receptor (hMC5-R); assay: 125I-NDP-α-MSH competition, hMC5-R membranes; remark: listed apart in the source
Description: as §1, §3

T3 sequence (P33032 whole entry): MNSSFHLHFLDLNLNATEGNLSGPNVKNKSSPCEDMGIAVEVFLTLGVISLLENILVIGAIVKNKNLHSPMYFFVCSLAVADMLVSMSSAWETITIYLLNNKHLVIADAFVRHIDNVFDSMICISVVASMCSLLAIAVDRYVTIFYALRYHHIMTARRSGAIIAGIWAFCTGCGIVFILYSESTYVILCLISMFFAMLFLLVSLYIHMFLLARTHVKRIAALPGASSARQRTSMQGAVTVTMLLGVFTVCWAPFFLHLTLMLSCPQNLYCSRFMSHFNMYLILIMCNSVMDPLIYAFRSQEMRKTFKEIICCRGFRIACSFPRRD
T4 sequence (P32245 whole entry): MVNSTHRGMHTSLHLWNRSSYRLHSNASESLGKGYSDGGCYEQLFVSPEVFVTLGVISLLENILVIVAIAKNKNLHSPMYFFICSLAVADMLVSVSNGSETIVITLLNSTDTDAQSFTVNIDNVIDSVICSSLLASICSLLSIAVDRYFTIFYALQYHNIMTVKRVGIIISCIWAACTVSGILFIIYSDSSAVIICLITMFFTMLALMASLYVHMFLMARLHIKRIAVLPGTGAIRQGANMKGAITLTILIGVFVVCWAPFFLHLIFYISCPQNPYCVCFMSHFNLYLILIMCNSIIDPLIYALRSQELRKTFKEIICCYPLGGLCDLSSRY
T1 sequence (Q01727 whole entry): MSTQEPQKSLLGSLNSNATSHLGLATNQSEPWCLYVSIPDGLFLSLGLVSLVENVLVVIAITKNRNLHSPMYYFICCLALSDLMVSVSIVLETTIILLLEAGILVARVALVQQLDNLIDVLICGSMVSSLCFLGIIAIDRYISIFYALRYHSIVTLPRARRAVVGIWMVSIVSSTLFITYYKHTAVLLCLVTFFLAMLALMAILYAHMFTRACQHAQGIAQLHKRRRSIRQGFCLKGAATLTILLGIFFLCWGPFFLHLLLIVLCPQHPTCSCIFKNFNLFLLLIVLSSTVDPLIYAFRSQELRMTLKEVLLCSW
T2 sequence (P41968 whole entry): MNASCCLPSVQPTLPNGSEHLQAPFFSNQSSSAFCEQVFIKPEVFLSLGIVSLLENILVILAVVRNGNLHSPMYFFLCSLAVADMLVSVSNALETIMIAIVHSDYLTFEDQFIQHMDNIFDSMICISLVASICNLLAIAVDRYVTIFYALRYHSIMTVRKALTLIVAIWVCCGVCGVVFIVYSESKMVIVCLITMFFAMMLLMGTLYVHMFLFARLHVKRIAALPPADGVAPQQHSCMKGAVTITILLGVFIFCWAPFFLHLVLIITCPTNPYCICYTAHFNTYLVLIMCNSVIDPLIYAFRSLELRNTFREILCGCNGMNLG

Binder	% Inhibition at 1 µM [1] [%]	% Inhibition at 1 µM [2] [%]	% Inhibition at 1 µM [3] [%]	% Inhibition at 1 µM [8] [%]	also measured
Ac-SYS[Nle]ECHFRWGKPV-NH2 (also: oxorhenium(V) N3S1 chelate at Cys6) [metallopeptide 1-9]	74	0	6		
YV[Nle]GH[dF]RWDCRF-NH2 (not fully specified (bridges); printed as Tyr-Val-Nle-Gly-His-D-Phe-Arg-Trp-Asp-Cys-Arg-Phe-NH2; also: oxorhenium(V) N3S1 chelate (backbone N of W8, D9, C10 and C10 S)) [metallopeptide 3-3]					% Inhibition at 1 µM [4]: 99%; % Inhibition at 1 µM [5]: 95%; % Inhibition at 1 µM [6]: 99%; % Inhibition at 1 µM [7]: 99%
Ac-SYS[Nle]EHFRWGKCPV-NH2 (also: oxorhenium(V) N3S1 chelate at Cys12) [metallopeptide 1-3]	87	0	12	0	
Ac-SYS[Nle]EHFR[dC]WGKPV-NH2 (also: oxorhenium(V) N3S1 chelate at D-Cys9) [metallopeptide 2-6]					% Inhibition at 1 µM [9]: 46%; % Inhibition at 1 µM [10]: 2%; % Inhibition at 1 µM [11]: 6%; % Inhibition at 1 µM [12]: 6%
Ac-SYS[Nle]EHFRWGKGVC-NH2 (not fully specified; also: oxorhenium(V) N3S1 chelate at Cys14) [metallopeptide 1-1]	95	48	68	63	
Ac-SYS[Nle]EHFRWCGKPV-NH2 (also: oxorhenium(V) N3S1 chelate at Cys10) [metallopeptide 1-5]	57	0	0	0	
YVXGHFRWDRFC (Nle 3 (X in letters); D-Phe 6; C-terminal amide; Re complexed at Cys 12) [metallopeptide 3-1]					% Inhibition at 1 µM [4]: 95%; % Inhibition at 1 µM [5]: 96%; % Inhibition at 1 µM [6]: 98%; % Inhibition at 1 µM [7]: 102%
Ac-SYS[Nle]EHFRCWGKPV-NH2 (also: oxorhenium(V) N3S1 chelate at Cys9) [metallopeptide 1-6]	29	0	0	0	
Ac-SYCS[Nle]EHFRWGKPV-NH2 (also: oxorhenium(V) N3S1 chelate at Cys3) [metallopeptide 1-12]	96	15	19	26	
Ac-SYS[Nle]EHFRWGKGCV-NH2 (also: oxorhenium(V) N3S1 chelate at Cys13) [metallopeptide 1-2]	87		37	0	
Ac-SYSMEHFRWGKPV-NH2 (not complexed to Re; also called α-MSH analog) [α-MSH parent polypeptide Ac-Ser-Tyr-Ser-Met-Glu-His-Phe-Arg-Trp-Gly-Lys-Pro-Val-NH2]	99				% Inhibition at 1 µM [9]: 99%
Ac-SYS[Nle]EHFRW[dC]GKPV-NH2 (also: oxorhenium(V) N3S1 chelate at D-Cys10) [metallopeptide 2-5]					% Inhibition at 1 µM [9]: 43%; % Inhibition at 1 µM [10]: 0%; % Inhibition at 1 µM [11]: 4%; % Inhibition at 1 µM [12]: 0%
Ac-SYS[Nle]EHFCRWGKPV-NH2 (also: oxorhenium(V) N3S1 chelate at Cys8) [metallopeptide 1-7]	68	0	0	0	
Ac-SYS[Nle]EHFRWGCKPV-NH2 (also: oxorhenium(V) N3S1 chelate at Cys11) [metallopeptide 1-4]	72	0		0	
Ac-SYS[Nle]EHF[dC]RWGKPV-NH2 (also: oxorhenium(V) N3S1 chelate at D-Cys8) [metallopeptide 2-7]					% Inhibition at 1 µM [9]: 54%; % Inhibition at 1 µM [10]: 0%; % Inhibition at 1 µM [11]: 6%; % Inhibition at 1 µM [12]: 0%
Ac-SYS[Nle]EHFRWG[dC]KPV-NH2 (also: oxorhenium(V) N3S1 chelate at D-Cys11) [metallopeptide 2-4]					% Inhibition at 1 µM [9]: 91%; % Inhibition at 1 µM [10]: 27%; % Inhibition at 1 µM [11]: 40%; % Inhibition at 1 µM [12]: 21%
Ac-SYS[Nle]CEHFRWGKPV-NH2 (also: oxorhenium(V) N3S1 chelate at Cys5) [metallopeptide 1-10]	72	0	5		
Ac-SYS[Nle]EHCFRWGKPV-NH2 (also: oxorhenium(V) N3S1 chelate at Cys7) [metallopeptide 1-8]	42	0		0	
YV[Nle]GH[dF]RWDRCF-NH2 (not fully specified (bridges); printed as Tyr-Val-Nle-Gly-His-D-Phe-Arg-Trp-Asp-Arg-Cys-Phe-NH2; also: oxorhenium(V) N3S1 chelate (backbone N of D9, R10, C11 and C11 S)) [metallopeptide 3-2]					% Inhibition at 1 µM [4]: 99%; % Inhibition at 1 µM [5]: 91%; % Inhibition at 1 µM [6]: 89%; % Inhibition at 1 µM [7]: 100%
Ac-SYSC[Nle]EHFRWGKPV-NH2 (also: oxorhenium(V) N3S1 chelate at Cys4) [metallopeptide 1-11]	95	18	6	21	
